Data set [1] deals with T1, CgPho4 DBD (Candida glabrata, UniProt Q6FVW0 452-533).
T1 sequence: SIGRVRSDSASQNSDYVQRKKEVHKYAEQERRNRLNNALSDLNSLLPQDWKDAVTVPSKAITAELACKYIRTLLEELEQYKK
The data set is described as follows: EMSA; 5 mM MgCl2, 1 mM EDTA; 4 C; BLI: 1x PBS pH 7.4, 0.01% BSA, 0.002% Tween-20, 0.005% sodium azide, 30 C; EMSA: 20 mM Tris-HCl pH 8, 150 mM KCl, 10% glycerol, 5 mM MgCl2, 1 mM EDTA, 1 mM DTT, 4 C. Particulars: protein: recombinant; tags: C-terminal 6xHis; chain copies: 2; label: IR700; blunt. On the technique in general: Mobility shift assays separate free from complexed probe on a gel.

Data set [2] deals with T2, ScPho4 DBD (Saccharomyces cerevisiae, UniProt P07270 236-312).
T2 sequence: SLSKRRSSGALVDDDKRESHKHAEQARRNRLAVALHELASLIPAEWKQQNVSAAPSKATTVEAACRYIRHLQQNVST
The data set is described as above. As to conditions: protein: recombinant; tags: C-terminal 6xHis; chain copies: 2; label: IR700; blunt.

In data set [3] the target is T1, CgPho4 DBD. Kind of data set: BLI; mean of 5 replicates; 30 C; BLI: 1x PBS pH 7.4, 0.01% BSA, 0.002% Tween-20, 0.005% sodium azide, 30 C; EMSA: 20 mM Tris-HCl pH 8, 150 mM KCl, 10% glycerol, 5 mM MgCl2, 1 mM EDTA, 1 mM DTT, 4 C. Particulars: protein: recombinant; tags: C-terminal 6xHis; chain copies: 2; blunt. Background: BLI is a label-free optical method that tracks binding on a fibre tip over time.

Data set [4] has as its target T2, ScPho4 DBD. Described as above. Particulars: protein: recombinant; tags: C-terminal 6xHis; chain copies: 2; blunt.

Broadly, the Kd is the constant that tells how readily two partners part at equilibrium.

B1: 17-bp consensus E-box, EMSA probe (dsDNA)
DNA 1: CTAGTCCCACGTGTGAG
DNA 2: CTCACACGTGGGACTAG
With B1, the Kd in the data set with CgPho4 DBD [1] was 1.9 nM; in the data set with ScPho4 DBD [2] it was 5.5 nM.

B2: 17-bp consensus E-box, BLI probe (dsDNA)
DNA 1: CTAGTCCCACGTGTGAG
DNA 2: CTCACACGTGGGACTAG
For B2, the dissociation constant Kd is 1.2 nM with CgPho4 DBD [3] and 5.2 nM with ScPho4 DBD [4].

These data come from publication PMC12177071, “Divergence in a eukaryotic transcription factor’s co-TF dependence involves multiple intrinsically disordered regions”.
